± gives the uncertainty stated by the source.

Data on 89 substances can be found in the Human Domainome abundance scans (Beltran et al. 2025).

The data set is described as follows: abundance fitness (aPCA) (normalised: wild type 0, dead -1); higher = more abundant; growth selection in yeast, the domain comes from the species named. To be noted: Homo sapiens.
For the substance “SAFB-like transcription modulator T23Y, Q9NWH9”, the abundance fitness is -0.083 ± 0.033.
With “SAFB-like transcription modulator T42A, Q9NWH9” the figure was -0.045 ± 0.092; with “SAFB-like transcription modulator T42C, Q9NWH9”, 0.078 ± 0.097; with “SAFB-like transcription modulator T42D, Q9NWH9”, 0.061 ± 0.092.
Substance “SAFB-like transcription modulator T42E, Q9NWH9” gave an abundance fitness of -0.107 ± 0.12.
With “SAFB-like transcription modulator T42G, Q9NWH9” the figure was -0.247 ± 0.085.
As for “SAFB-like transcription modulator T42I, Q9NWH9”, the figure is -0.682 ± 0.14; as for “SAFB-like transcription modulator T42K, Q9NWH9”, 0.035 ± 0.11; as for “SAFB-like transcription modulator T42L, Q9NWH9”, -0.345 ± 0.069.
As for “SAFB-like transcription modulator T42M, Q9NWH9”, the figure is -0.104 ± 0.09; as for “SAFB-like transcription modulator T42N, Q9NWH9”, -0.442 ± 0.16.
In the case of “SAFB-like transcription modulator T42P, Q9NWH9”, the abundance fitness is -0.729 ± 0.051.
As for “SAFB-like transcription modulator T42Q, Q9NWH9”, the figure is 0.127 ± 0.1.
As for “SAFB-like transcription modulator T42R, Q9NWH9”, the figure is 0.057 ± 0.084; as for “SAFB-like transcription modulator T42S, Q9NWH9”, 0.071 ± 0.095; as for “SAFB-like transcription modulator T42V, Q9NWH9”, -0.488 ± 0.099.
As for “SAFB-like transcription modulator T42W, Q9NWH9”, the figure is -0.315 ± 0.095.
Substance “SAFB-like transcription modulator T42Y, Q9NWH9” came in with an abundance fitness of 0.194 ± 0.11.
In turn, “SAFB-like transcription modulator T46A, Q9NWH9” yielded an abundance fitness of -0.062 ± 0.068.
With “SAFB-like transcription modulator T46C, Q9NWH9” the figure was 0.066 ± 0.074; with “SAFB-like transcription modulator T46D, Q9NWH9”, -0.235 ± 0.088; with “SAFB-like transcription modulator T46E, Q9NWH9”, 0.004 ± 0.068.
With “SAFB-like transcription modulator T46F, Q9NWH9” the figure was -0.358 ± 0.088.
For the substance “SAFB-like transcription modulator T46G, Q9NWH9”, the abundance fitness is -0.094 ± 0.06.
As for “SAFB-like transcription modulator T46H, Q9NWH9”, the figure is 0.011 ± 0.071; as for “SAFB-like transcription modulator T46I, Q9NWH9”, -0.107 ± 0.073.
With “SAFB-like transcription modulator T46K, Q9NWH9” the figure was 0.074 ± 0.09; with “SAFB-like transcription modulator T46L, Q9NWH9”, -0.082 ± 0.052; with “SAFB-like transcription modulator T46M, Q9NWH9”, 0.111 ± 0.073.
With “SAFB-like transcription modulator T46N, Q9NWH9” the figure was 0.103 ± 0.093; with “SAFB-like transcription modulator T46P, Q9NWH9”, 0.037 ± 0.071.
On to “SAFB-like transcription modulator T46Q, Q9NWH9”, for which the abundance fitness is -0.137 ± 0.074.
With “SAFB-like transcription modulator T46R, Q9NWH9” the figure was -0.163 ± 0.064; with “SAFB-like transcription modulator T46S, Q9NWH9”, 0.05 ± 0.059.
With “SAFB-like transcription modulator T46W, Q9NWH9” the figure was -0.129 ± 0.038; with “SAFB-like transcription modulator T46Y, Q9NWH9”, -0.097 ± 0.088; with “SAFB-like transcription modulator V27A, Q9NWH9”, -0.395 ± 0.1.
In turn, “SAFB-like transcription modulator V27C, Q9NWH9” showed an abundance fitness of -0.067 ± 0.094.
Substance “SAFB-like transcription modulator V27D, Q9NWH9” showed an abundance fitness of -0.127 ± 0.12.
On to “SAFB-like transcription modulator V27E, Q9NWH9”, for which the abundance fitness is -0.153 ± 0.11.
As for “SAFB-like transcription modulator V27F, Q9NWH9”, the figure is -0.585 ± 0.15.
With “SAFB-like transcription modulator V27G, Q9NWH9” the figure was -0.405 ± 0.088.
With “SAFB-like transcription modulator V27I, Q9NWH9” the figure was -0.011 ± 0.054.
“SAFB-like transcription modulator V27K, Q9NWH9”: the abundance fitness was -0.533 ± 0.27.
With “SAFB-like transcription modulator V27L, Q9NWH9” the figure was -0.21 ± 0.082; with “SAFB-like transcription modulator V27M, Q9NWH9”, 0.158 ± 0.099; with “SAFB-like transcription modulator V27N, Q9NWH9”, -0.453 ± 0.16.
As for “SAFB-like transcription modulator V27Q, Q9NWH9”, the figure is -0.426 ± 0.15; as for “SAFB-like transcription modulator V27R, Q9NWH9”, -0.241 ± 0.07.
With “SAFB-like transcription modulator V27S, Q9NWH9” the figure was -0.417 ± 0.097.
In turn, “SAFB-like transcription modulator V27T, Q9NWH9” had an abundance fitness of 0.086 ± 0.092.
As for “SAFB-like transcription modulator V27W, Q9NWH9”, the figure is -0.396 ± 0.09; as for “SAFB-like transcription modulator V27Y, Q9NWH9”, -0.29 ± 0.24; as for “SAFB-like transcription modulator V44A, Q9NWH9”, 0.064 ± 0.039.
“SAFB-like transcription modulator V44C, Q9NWH9”: the abundance fitness is 0.036 ± 0.076.
As for “SAFB-like transcription modulator V44D, Q9NWH9”, the figure is 0.055 ± 0.072; as for “SAFB-like transcription modulator V44E, Q9NWH9”, -0.124 ± 0.075; as for “SAFB-like transcription modulator V44F, Q9NWH9”, 0.002 ± 0.075.
Substance “SAFB-like transcription modulator V44H, Q9NWH9” displayed an abundance fitness of 0.126 ± 0.089.
With “SAFB-like transcription modulator V44I, Q9NWH9” the figure was -0.057 ± 0.054; with “SAFB-like transcription modulator V44K, Q9NWH9”, -0.233 ± 0.088.
With “SAFB-like transcription modulator V44L, Q9NWH9” the figure was -0.122 ± 0.038; with “SAFB-like transcription modulator V44M, Q9NWH9”, -0.092 ± 0.058.
As for “SAFB-like transcription modulator V44N, Q9NWH9”, the figure is 0.048 ± 0.058; as for “SAFB-like transcription modulator V44P, Q9NWH9”, 0.014 ± 0.049.
Consider “SAFB-like transcription modulator V44Q, Q9NWH9”, for which the abundance fitness is -0.134 ± 0.078.
With “SAFB-like transcription modulator V44R, Q9NWH9” the figure was -0.054 ± 0.034.
With “SAFB-like transcription modulator V44S, Q9NWH9” the figure was 0.036 ± 0.051; with “SAFB-like transcription modulator V44T, Q9NWH9”, -0.008 ± 0.06.
As for “SAFB-like transcription modulator V44W, Q9NWH9”, the figure is -0.358 ± 0.055; as for “SAFB-like transcription modulator V44Y, Q9NWH9”, -0.258 ± 0.081; as for “SAFB-like transcription modulator V47A, Q9NWH9”, -0.025 ± 0.058.
As to “SAFB-like transcription modulator V47C, Q9NWH9”, the abundance fitness was -0.074 ± 0.037.
With “SAFB-like transcription modulator V47D, Q9NWH9” the figure was -0.001 ± 0.065; with “SAFB-like transcription modulator V47E, Q9NWH9”, 0.022 ± 0.068; with “SAFB-like transcription modulator V47F, Q9NWH9”, -0.447 ± 0.044.
As for “SAFB-like transcription modulator V47G, Q9NWH9”, the figure is -0.28 ± 0.038; as for “SAFB-like transcription modulator V47H, Q9NWH9”, -0.329 ± 0.081; as for “SAFB-like transcription modulator V47I, Q9NWH9”, 0.051 ± 0.066.
With “SAFB-like transcription modulator V47K, Q9NWH9” the figure was 0.003 ± 0.063.
Regarding “SAFB-like transcription modulator V47L, Q9NWH9”, the abundance fitness was -0.125 ± 0.038.
With “SAFB-like transcription modulator V47M, Q9NWH9” the figure was 0.013 ± 0.061; with “SAFB-like transcription modulator V47N, Q9NWH9”, -0.079 ± 0.045.
For the substance “SAFB-like transcription modulator V47P, Q9NWH9”, the abundance fitness is -0.585 ± 0.056.
As for “SAFB-like transcription modulator V47Q, Q9NWH9”, the figure is 0.019 ± 0.047; as for “SAFB-like transcription modulator V47R, Q9NWH9”, -0.207 ± 0.043.
The substance “SAFB-like transcription modulator V47S, Q9NWH9” registered an abundance fitness of -0.152 ± 0.048.
With “SAFB-like transcription modulator V47T, Q9NWH9”, the abundance fitness is 0.089 ± 0.064.
In turn, “SAFB-like transcription modulator V47Y, Q9NWH9” showed an abundance fitness of -0.525 ± 0.044.
